In patent US20230374087A1, “METHOD TO IMPROVE PROTEIN QUALITY CONTROL” (The Johns Hopkins University, priority 2020, published 2023):
Like-named read-outs stand apart in the source and are kept apart here. One block for each molecule: values may come before it.

Experiments:
[1] = tested on: proteasome; test: Proteasome activity assay in NRCMs; assay type: cell-based, rat; settings: control cells and cells subjected to SI
Protocol: Proteasome peptidase activity assays were performed as described (22) with slight modification.

[2] = tested on: CHIP pS20; test: Immunoblot for phospho-S20 CHIP in myocytes; assay type: cell-based, rat; settings: cardiomyocytes; cGMP or SIL; DT3 1 μM
Protocol: (§1) Tissue and cultured cardiomyocytes were lysed in 1× lysis buffer (Cell Signaling Technology), protein concentration was measured by bicinchoninic acid assay (Pierce), and extracts were subjected to SDS-PAGE using Novex Tris-Glycine Gels (4-20% gradient gel, Life Technologies) or Mini-protean TGX Gels (4-20% gradient gel, Bio-Rad), transferred to nitrocellulose membranes, and probed with various primary antibodies (CHIP (#2080S), Hsc70 (#8444S), p-CHIP S20 (Custom antibody, AbMart Inc., Shanghai, China; Project: 25011-1), Myc (#2276S), GAPDH (#2118S), and α-tubulin (#3878S) (Cell Signaling) and ubiquitin antibody (#SAB4503053) from Sigma), and fluorescence-labeled secondary antibodies (Licor, #926-32211, 926-32210, 926-68023, or 926-68022). Gels were imaged (Odyssey, Licor) and band intensity quantified (Odyssey Software 3.1).
Human CHIP peptide fragments containing amino acid residues 13-30 were incubated with cGMP/PKG and assayed by MS. […] Phosphorylation was also observed at neighboring S24 and S26, but only when a S20A CHIP mutant was used (FIG. 2D). This indicates the primary target for PKG on CHIP is at S20. A monoclonal phospho-antibody generated against the S20 site in CHIP was tested in vitro with recombinant PKG1α and CHIP, verifying a consistent phospho-S20-CHIP signal. Use of a CHIP-S20A mutant CHIP confirmed specificity (FIG. 2E).

[3] = tested on: neonatal rat cardiomyocytes (NRCMs); test: LDH/MTT cytotoxicity assay after simulated ischemia (SI); settings: for SI-induced cytotoxicity (LDH/MTT ratio): sildenafil 1 μM
Protocol: (§3) After overnight culture, subsets of NRCMs were infected with adenovirus (AdV) containing a FLAG-tagged PDE5, FLAG control, Myc-tagged CHIP WT or K31A (provided by Dr. Cam Patterson), S20E or S20A (Welgen Inc., Worcester, MA). Forty-eight hours after infection, cells were exposed to either simulated ischemia (SI) or normal conditions. SI involved incubating cells in DMEM containing deoxyglucose (20 mM), NaCl (125 mM), KCl (8 mM), KH2PO4 (1.2 mM), MgSO4 (1.25 mM), CaCl2) (1.2 mM), NaHCO3(6.25 mM), sodium lactate (5 mM), and HEPES (20 mM) with a pH of 6.6. Cells were then placed in an incubator chamber (Billups-Rothenberg) with 95% nitrogen, 4% carbon dioxide, and 1% oxygen. Normoxic controls were incubated in DMEM supplemented with 10% FBS in air composed of 95% carbon dioxide and 5% oxygen. RNA or protein was harvested after 48 hours of SI. Cells were also treated with sildenafil (1 μM) or vehicle, or small interference RNA (siRNA, 100 pM) specific for rat Stub1 (Qiagen, Cat. #: SI01532251) or scrambled control provided 24 hours after plating and transfected with Xfect (Takara) per manufacturer protocol.
(§4) Lactate dehydrogenase (LDH) leakage and (3-[4,5-dimethylthiazol-2-yl]-2,5-diphenyltetrazolium bromide) (MTT) were assessed in cultured cardiomyocytes and media after SI from the same culture dish. LDH was assayed by commercial assay (Roche) following manufacturer's protocol, read in 96 well microplates on a Spectramax M5 (Molecular Devices) at 490 nm absorbance. For MTT, cells were washed in phosphate-buffered saline, MTT (Sigma-Aldrich) working solution added to the culture dish, incubated at 37° C., solubilized with acidic isopropanol, transferred to a 96 well plate, and read at 570 nm with background subtraction at 650 nm on a Spectramax M5.

[4] = biological target: T1, Hsc70 (Rattus norvegicus, UniProt P63018); test: CHIP-Hsc70 co-immunoprecipitation from myocyte lysate; assay type: cell-based; settings: myocytes with or without SI, Hsc70 as bait
T1 construct: lysate from myocytes with or without exposure to SI were immunoprecipitated using Hsc70 as bait; endogenous in cells; host or cells: neonatal rat cardiomyocytes infected with adenovirus for Myc-tagged CHIP WT, S20E or S20A
Protocol: as §1
To test whether thermodynamic stabilization of CHIP-HSC70 due to S20 phosphorylation enhances protein binding, lysate from myocytes with or without exposure to SI were immunoprecipitated using Hsc70 as bait. […] Reduced CHIP-Hsc70 interaction was also observed in vivo following MI in hearts with PKG activation suppressed by mPDE5A/oe, whereas this was enhanced in WT hearts (FIG. 5C, FIG. 14B).

[5] = tested on: ubiquitinated proteins; test: Western blot of ubiquitinated proteins in NRCMs after SI; assay type: cell-based, rat; settings: adenovirus CHIP variant, SI 48 hours, compared to CHIP-WT
Protocol: as §1

[6] = tested on: transthyretin (TTR) V122I; test: TTR aggregates in NRCMs by confocal microscopy; assay type: cell-based, rat; settings: TTR V122I 5 μM, adenovirus, 14 days
Protocol: Neonatal rat cardiomyocytes (NRCMs) were cultured in mutant transthyretin (TTR) valine 122 to isoleucine (V122I)-containing medium (5 μM) and transfected with a Chip SE (serine 20 phospho-mimetic) or SA ([…] phospho-null) adenovirus and cultured for 14 days. Cardiomyocytes were stained with phalloidin (red), TTR (green), and nuclei with DAPI (blue).

[7] = tested on: neonatal rat cardiomyocytes (NRCMs)
Protocol: as §3, §4

[8] = tested on: TTR-V122I; test: TTR abundance in hiPSC-CMs by western blot; assay type: cell-based, human; settings: siLamp2A 100 μM, TTR-V122I 5 μM, 14 days
Protocol: (§2) Human induced pluripotent stem cell derived cardiomyocytes (hiPSC-CMs) were infected with Ad-Chip WT, SE, or SA (10 MOI), in the presence or absence of protein kinase G (PKG) stimulation via cGMP (100 mM) and exposed to media containing TTR-V122I (5 μM) or control for 14 days. Cells were lysed and TTR abundance was determined by western blotting for TTR with a total protein stain used to show equal loading.
as §2, with “Lamp2A knockdown” for “protein kinase G (PKG) stimulation”, “siRNA (siLamp2A, 100 μM)” for “cGMP (100 mM)”, “loading. Knocking down Lamp2A removes the method of protein degradation known as chaperone mediated autophagy (CMA).” for “loading.”

[9] = biological target: T2, recombinant human CHIP peptide fragment containing residues 13-30 (Uniprot Q9UNE7), WT
T2 chain: LGAGGGSPEKSPSAQELK

[10] = biological target: T3, recombinant human CHIP peptide fragment containing residues 13-30, S20A
T3 chain: LGAGGGAPEKSPSAQELK

Molecule: CCCc1nn(C)c2c(=O)[nH]c(-c3cc(S(=O)(=O)N4CCN(C)CC4)ccc3OCC)nc12 [SIL, sildenafil]
proteasome activity [1]: augmented | CHIP pS20 level [2]: CHIP pS20 increased | SI-induced cytotoxicity (LDH/MTT ratio) ([3]; NRCMs expressing CHIP (scrambled siRNA)): reduced SI-induced cytotoxicity | cytotoxicity with SIL across CHIP forms ([3]; NRCMs expressing WT, S20E or S20A CHIP, control and SI conditions): lowered cytotoxicity regardless of which CHIP protein was expressed | SI-induced cytotoxicity (LDH/MTT ratio) ([3]; NRCMs lacking CHIP (CHIP-siRNA)): this protective effect was lost

co-precipitation of CHIP and Hsc70 [4]: co-precipitation was absent
B1: CHIP-S20A: phospho-silenced (phospho-null) CHIP mutant, serine 20 to alanine (protein)
chain: MKGKEEKEGGARLGAGGGAPEKSPSAQELKEQGNRLFVGRKYPEAAACYGRVITRNPLVAVYYTNRALCYLKMQQHEQALADCRRALELDGQSVKAHFFLGQCQLEMESYDEAIANLQRAYSLAKEQRLNFGDDIPSALRIAKKKRWNSIEERRIHQESELHSYLSRLIAAERERELEECQRNHEGDEDDSHVRAQQACIEAKHDKYMADMDELFSQVDEKRKKRDIPDYLCGKISFELMREPCITPSGITYDRKDIEEHLQRVGHFDPVTRSPLTQEQLIPNLAMKEVIDAFISENGWVEDY
modifications: left off: small tags and cut ends
notes: phospho-silenced (phospho-null) CHIP mutant, serine 20 to alanine
ubiquitinated proteins after SI [5]: significantly amplified | TTR positive aggregates [6]: increased TTR positive aggregates | SI-induced cytotoxicity (LDH/MTT ratio) [7]: displayed greater cytotoxicity and blunted the protective effects from SIL | TTR accumulation with Lamp2A knockdown [8]: exacerbated the accumulation of TTR

B2: human, active PKG1α purified from Sf9 cells (SRP0371, Sigma) (protein)
chain: SELEEDFAKILMLKEERIKELEKRLSEKEEEIQELKRKLHKCQSVLPVPSTHIGPRTTRAQGISAEPQTYRSFHDLRQAFRKFTKSERSKDLIKEAILDNDFMKNLELSQIQEIVDCMYPVEYGKDSCIIKEGDVGSLVYVMEDGKVEVTKEGVKLCTMGPGKVFGELAILYNCTRTATVKTLVNVKLWAIDRQCFQTIMMRTGLIKHTEYMEFLKSVPTFQSLPEEILSKLADVLEETHYENGEYIIRQGARGDTFFIISKGTVNVTREDSPSEDPVFLRTLGKGDWFGEKALQGEDVRTANVIAAEAVTCLVIDRDSFKHLIGGLDDVSNKAYEDAEAKAKYEAEAAFFANLKLSDFNIIDTLGVGGFGRVELVQLKSEESKTFAMKILKKRHIVDTRQQEHIRSEKQIMQGAHSDFIVRLYRTFKDSKYLYMLMEACLGGELWTILRDRGSFEDSTTRFYTACVVEAFAYLHSKGIIYRDLKPENLILDHRGYAKLVDFGFAKKIGFGKKTWTFCGTPEYVAPEIILNKGHDISADYWSLGILMYELLTGSPPFSGPDPMKTYNIILRGIDMIEFPKKIAKNAANLIKKLCRDNPSERLGNLKNGVKDIQKHKWFEGFNWEGLRKGTLTPPIIPSVASPTDTSNFDSFPEDNDEPPPDDNSGWDIDF
serine phosphorylation detected by mass spectrometry after incubation with cGMP/PKG [9]: Phosphorylation was observed at S20 with wildtype (WT) CHIP | serine phosphorylation detected by mass spectrometry after incubation with cGMP/PKG [10]: Phosphorylation was also observed at neighboring S24 and S26, but only when a S20A CHIP mutant was used
